Consider 1 molecule from paper doi:10.1101/2025.11.22.689938 (bioRxiv, 2025).

The target of the test is HA-JMJD5 (wildtype, pEF6) (human, UniProt Q8N371 1-416). Put plainly: co-IP.
HA-JMJD5 (wildtype, pEF6), sequence (Q8N371 whole entry): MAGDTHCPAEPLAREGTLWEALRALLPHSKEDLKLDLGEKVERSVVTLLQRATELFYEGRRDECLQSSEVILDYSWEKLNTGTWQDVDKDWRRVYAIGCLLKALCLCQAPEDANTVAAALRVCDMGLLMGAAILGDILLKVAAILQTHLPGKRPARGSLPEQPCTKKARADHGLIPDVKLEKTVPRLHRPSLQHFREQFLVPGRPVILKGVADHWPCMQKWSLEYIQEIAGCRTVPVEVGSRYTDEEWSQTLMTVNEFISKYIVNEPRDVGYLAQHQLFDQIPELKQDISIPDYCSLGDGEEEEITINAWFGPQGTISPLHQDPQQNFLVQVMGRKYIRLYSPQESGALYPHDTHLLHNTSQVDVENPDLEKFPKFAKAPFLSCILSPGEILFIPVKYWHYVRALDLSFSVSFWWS

B1: RCCD1-FLAG (wildtype, pIHZ) (natural protein)
chain: MAEERPGAWFGFGFCGFGQELGSGRGRQVHSPSPLRAGVDICRVSASWSYTAFVTRGGRLELSGSASGAAGRCKDAWASEGLLAVLRAGPGPEALLQVWAAESALRGEPLWAQNVVPEAEGEDDPAGEAQAGRLPLLPCARAYVSPRAPFYRPLAPELRARQLELGAEHALLLDAAGQVFSWGGGRHGQLGHGTLEAELEPRLLEALQGLVMAEVAAGGWHSVCVSETGDIYIWGWNESGQLALPTRNLAEDGETVAREATELNEDGSQVKRTGGAEDGAPAPFIAVQPFPALLDLPMGSDAVKASCGSRHTAVVTRTGELYTWGWGKYGQLGHEDTTSLDRPRRVEYFVDKQLQVKAVTCGPWNTYVYAVEKGKS
In the case of B1, the binding result is “binds”.
